For one molecule, Kd results are on record in publication PMC7003530 (Biochemistry, 2019).

As a reminder, the Kd is a measure of binding affinity in units of concentration.

The experiment has as its target Factor-inhibiting HIF-1 (human, UniProt Q9NWT6 1-349). Kind of experiment: other fluorescence titration.

The molecule H-DESGLPQLTSYDAEVNAPIQGSRNLLQGEELLRALDQVN-OH [39-residue CTAD peptide substrate, human HIF-1α 788–826 with C800A] came in with a Kd of 92 ± 9 µM.
